Measurements as given in the RNAGym collection of RNA variant scans (doi:10.1073/pnas.2313332121).

B1: TPR t1 (parent)
chain: GACCAAUCUGCCCUCAGAGCUCGAGAACAUCUUCGGAUGCAGAGGAGGCAGGCUUCGGUGGCGCGAUAGCGCCAACGUCCUCAACCUCCAAUGCAUCCCACCACAUGAUGAUGCCUGAAGAGCCUUGGUUUUUUG

Variants of: B1
Test: polymerase ribozyme fitness, log enrichment relative to wild type (log ratio); higher = more active; in vitro selection for triplet polymerase activity
How it was run: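 In triplicate, a single round of in vitro selection was run on each mutant library, PCR-built and transcribed, covering one subunit of a heterodimeric triplet polymerase ribozyme. Frozen incubation at −7 °C followed annealing with a biotinylated primer, partner subunit and triplets, and extended constructs were then gel-excised, streptavidin-captured and taken through RT-PCR. Fitness is the logarithm of genotype enrichment over wild-type enrichment, from inverse-variance-weighted replicate averages of Illumina-sequenced inputs and outputs. […] only genotypes with ≥10 input reads and ≥1 read per output were kept.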

| Variant | polymerase ribozyme fitness (log ratio) |
| --- | --- |
| C40G G71U C79A | -2.32 |
| C40U G63C C98U A100U C101U | -3.3 |
| G39C U55A C56A G63U A121U | -4.47 |
| C40G G52A C62U G128C | -3.34 |
| C40U G51U C53U G61U G113U | -6.53 |
| G39U G61A A75U U81C C99A G117U | -7.32 |
| C40U C104A A118U | -1.26 |
| U38C G47U G61C A95C | -3.89 |
| C40U A74G G77U C123U | 1.22 |
| C40G G60U A68G | -4.86 |
| G39A G51U U129G | -5.53 |
| C40G A100C | -2.29 |
| C40U G58C | -0.23 |
| C40U U55C C72U U96C A100C A119U G127U | -4.37 |
| U38A U54G | -0.848 |
| G39A G48A C56G G69U A105C | -2.52 |
| C40G C72G U92A G113U | -4.69 |
| U38C G42U C62G | -5.61 |
| C40G C49G G61U U87G U129A | -2.49 |
| G39U U92C C101G | -5.46 |
| A41C G48A G51U C80A C99G C115A U116G | -6.22 |

| Variant | polymerase ribozyme fitness (log ratio) |
| --- | --- |
| G39A A43U C72U C73G C115G U126C | -5.51 |
| A41C G44C | -1.48 |
| C40A U78G C88G | -4.1 |
| U38G C72U C104U | -1.14 |
| C40U G42A C101G C114A | -5.28 |
| C40A A84G A95C U125G U126G U129A | -4.98 |
| G39A G48C | -1.23 |
| A41C C49A C72U | -1.51 |
| G39A C73A G93U | -2.29 |
| G39A C104U | -0.931 |
| G39A C104A | -2.08 |
| U38G C49A U54C G69U C104A | -0.856 |
| C40A U54C C82G A118U C123U | -0.573 |
| G39U C49U C56U | -1.53 |
| G39U C56G C102U | -2.53 |
| C40U G47A | -2.33 |
| G39C C88U G135U | -2.39 |
| C40G G45A A46C G51C G58A G63C G110A G113U G117C | -7.24 |
| G39U A43C C62U G127A | -4.5 |
| C40U C88A | -0.911 |
| G39U C70G | -4.12 |

| Variant | polymerase ribozyme fitness (log ratio) |
| --- | --- |
| G39U C101G | -3.29 |
| G39U G63C A91C G113U A121C | -3.83 |
| C40U C72A | -0.504 |
| C40U C72U | -1.69 |
| U38G C115G | -3.06 |
| A41C C70A A118U | -2.8 |
| G39C C49U | -1.61 |
| U38G U116C | -2.06 |
| G39C U109A G110U | -3.37 |
| A41C A46C C114U U131C | -3.66 |
| G39U C88U A121G | 0.804 |
| C40A C88A G117A | -3.85 |
| C40A C49U U59A G60A G117C | -7.16 |
| C40A C64U C80U | -2.24 |
| C40A A105G | -4.43 |
| C40U G51A G60U C82G U96A U116G | -6.02 |
| G39A G61A | -0.128 |
| G39U C62U G117U | -3.18 |
| U38G C82U | -0.857 |
| C40A G48A U55A G60A A95G G120C | -1.53 |
| U38C A50U | -0.941 |

| Variant | polymerase ribozyme fitness (log ratio) |
| --- | --- |
| C40U C53A | 0.0513 |
| C40U C53G | 0.608 |
| G39U A74G G110C A111G | -5.64 |
| C40A U92G | -2.37 |
| G39U C115G | -2.58 |
| G39A C102U A118G | -2.73 |
| C40U A41C C56A C114A | -2.89 |
| C40A G48U | -1.61 |
| C40G G48A | -1.87 |
| C40G G48U | -1.55 |
| C40G C104U G113C G122A | -3.43 |
| G39A U78C | -1.06 |
| U38G G69C U112C | -1.03 |
| C40A G61U G93U A100C | -1.18 |
| C40G C56A U106C | -1.47 |
| G39C C97A | -5.8 |
| U38C U109C | -4.71 |
| C40U U55G U78G U92A G110C G122A C124G | -7.14 |
| C40G C70A | -3.86 |
| C40U A95U G117C A121C | -5.49 |
| G39C G45A | -0.954 |
